# Measured values from PMC4505445 (The Journal of Biological Chemistry, 2015).
# B1: wild-type human prion protein (amino acids 23–231), unlabeled (domain or fragment)
# chain: not shown
# Molecular target: biotinylated Aβ oligomers (from bAβ1–42) (UniProt P05067 672-713)
# Test: ELISA
# Conditions: both partners purified
binder,measurement,value
B1,binding result,binds
